One molecule from US20090124564A1 (YEDA RESEARCH AND DEVELOPMENT, published 2009) can be followed below.

The test concerns the target T1, mouse BCL-XL (mouse, UniProt Q64373 1-233).
T1 construct: whole, on cells; In mitochondria of FL5.12-BCL-XL cells
In words: BSOCOES cross-linking in TNFα-treated FL5.12-BCL-XL cells, excised 45 kDa gel section, alkaline reversal, Western blots. The procedure:
FIG. 16a-FL5.12-BCL-XL cells were induced for 5 hours in the presence TNFα/CHX (lanes 3 and 4) or were remained un-induced (lanes 1 and 2), following which mitochondria were prepared from the cells and were treated with the BSOCOES cross-linker (+) (lanes 2 and 4) or remained untreated (−) (lanes 1 and 3). At the end of the incubation, the membranes were lysed and were size-fractionated by SDS-PAGE and immunoblotted using anti-BID Abs. FIGS. 16b-d—The experiment presented in FIG. 16a was repeated and the gel sections corresponding to the position of the 45 kDa band in lanes 3 and 4 (FIG. 16a; marked by boxes) were excised, incubated in alkaline conditions, and later resolved as described in FIGS. 12a-c. Lane 1—excised gel band from lane 3 of the gel presented in FIG. 16a; lane 2—excised gel band from lane 4 of the gel presented in FIG. 16a. […] The asterisk marks cross-reactive substances that might have been released from the gel sections.
To assess whether this band represented a complex between tBID (15 kDa) and BCL-XL (30 kDa), the experiment was repeated and the gel sections corresponding to the position of the 45 kDa band in lanes 3 and 4 (marked by boxes in FIG. 16a) were excised, incubated in alkaline conditions, and later resolved as described in Example 7, hereinabove and in FIGS. 12a-c.
(In general: A western blot detects proteins with antibodies after separation by electrophoresis.)

T1 sequence (Q64373 whole entry): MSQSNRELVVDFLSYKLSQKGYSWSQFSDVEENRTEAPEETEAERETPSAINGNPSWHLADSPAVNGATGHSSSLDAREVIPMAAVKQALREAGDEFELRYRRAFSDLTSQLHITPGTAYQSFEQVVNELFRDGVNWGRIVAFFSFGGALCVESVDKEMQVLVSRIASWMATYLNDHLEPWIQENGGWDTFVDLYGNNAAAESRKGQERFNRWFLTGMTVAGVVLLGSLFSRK

B1: tBID, endogenous, in TNFα/CHX-treated FL5.12 cells (other)
chain: GSQASRSFNQGRIEPDSESQEEIIHNIARHLAQIGDEMDHNIQPTLVRQLAAQFMNGSLSEEDKRNCLAKALDEVKTAFPRDMENDKAMLIMTMLLAKKVASHAPSLLRDVFHTTVNFINQNLFSYVRNLVRNEMD
notes: FL5.12 is a murine cell line; also called endogenous tBID
Turning to B1, the binding result is on record as “binds”.
